According to patent publication US7144731B2, “SCF antibody compositions and methods of using the same” (Amgen Inc., priority 1989, dated 2006):

Legend:
[1] = tested on: peripheral blood mononuclear cells of normal donors; test: BFU-E assay, peripheral blood of normal donors; assay type: cell-based; conditions: Homo sapiens, PBMC; in the presence of the three concentrations of HuSCF (10, 100, 1000 ng/ml); read-out: IC50 (fifty percent inhibitory concentration) of zidovudine for BFU-E
Experimental: Peripheral blood mononuclear cells were isolated from leukopaks and peripheral blood using ficoll-hypaque sedimentation followed by extensive washing with Hank's Balance Salt Solution (HBSS). Blood cells were enumerated and viability ascertained by trypan blue dye exclusion.
Assays for BFU-E were performed in a standard protocol using normal human bone marrow as the control. Heparinized blood was diluted with an equal volume of HBSS (GIBCO, Grand Island, N.Y.), layered over Ficol-Paque (Pharmacia, Piscataway, N.J.) and centrifuged at 400 g for 30 minutes at room temperature. Light density cells (s.g. <1.077) were collected and washed twice in HBSS. Cells were resuspended in Iscove's Medium with 10% Fetal Bovine Serum (GIBCO, Grand Island, N.Y.) at a concentration of 1×10^7/ml. […] Erythroid burst colonies were scored after 14 days of culture in a humidified atmosphere containing 5% CO2. Each assay was done in duplicate and colonies with >50 cells present on day 14 with hemoglobinization were scored as BFU-E.
The 50% inhibitory concentration for zidovudine was calculated by expressing the mean of four determinations of BFU-E for each level of zidovudine and huSCF as a percentage of control (no added zidovudine). […] The 50% inhibitory concentration was calculated by interpolation and the value used as the exponent for the base of 10. […]

[2] = target: T1, SCF receptor (OCIM1 plasma membrane) (Homo sapiens, UniProt P10721); test: SCF radioreceptor assay; assay type: binding; conditions: E. coli derived
T1 construct: endogenous in cells; host or cells: OCIM1 human erythroleukemic cells, plasma membrane preparation
Experimental: OCIM1 cells, [Papayannopoulou et al., Blood 72:1029–1038 (1988)] are a human erythroleukemic cell line expressing many human SCF receptors per cell. These cells are grown in Iscove's Modified Dulbecco's Medium, 10% FBS, and 1× glutamine and passaged 3 times a week to 1×10^5 cells/ml.
Preparation of the OCIM1 plasma membrane is as follows with all steps performed on ice.
First, 40 T175 flasks of cells were grown-up in OCIM1 culture medium, for a total of 1.9×10^9 […]. The conditioned medium and 1 mM Phenyl Methyl Sulfonyl Fluoride (PMSF) protease inhibitor, was spun down in 8×250 ml tubes at 1000 rpm for 10 minutes at 4° C. Cells were washed with PBS and repelleted in 4×50 ml centrifuge tubes at 1000 rpm for 10 minutes at 4° C. Cells were resuspended in 20 ml ice cold PBS with glucose sodium pyruvate (Gibco Cat #310-4287). The 20 ml cell solution was put into a pre-pressurized, pre-chilled (4° C.) “cell bomb” designed to lyse the cells. Cells were pressurized at 400–650 PSI for 10 minutes to establish equilibrium. When the pressure is released cell lysis occurs.
At this point the cells were checked for the percentage of cell lysis. 90% lysis was common. The cell suspension was resuspended in 80 mls sucrose buffer (0.25M sucrose, 10 mM Tris, 1 mM EDTA in double distilled (dd) H2O, filtered through a 0.45 u filter, pH 7.0) and divided between two 40 ml screwcap tubes. Tubes were spun at 5900 RPM for 10 minutes in a Beckman J2-21 centrifuge, JA-20 rotor at 4° C. The supernatants were saved and spun one more time as above to further remove any unwanted material. Supernatants were saved and distributed equally into 2 nalgene 40 ml centrifuge tubes. These supernatants were centrifuged at 16,000 RPM 4° C. for 30 min. in J2-21 centrifuge, JA-20 rotor. These supernatants were discarded being careful to save pellets. Each pellet was resuspended in sucrose buffer so there were 20 mls per tube in 4×36 ml plastic ultracentrifuge tubes. Using a 20 ml syringe and a large trochar, the solution was carefully underlayered in each tube with ice cold 36% sucrose solution (36.1 g sucrose/100 mls ddH2O), bringing the level of the liquid to within 2 mm of the top of the tube. Without disturbing the interface, each tube was carefully placed into each of […] titanium ultracentrifuge tubes. Tubes were centrifuged at 27,000 RPM, 4° C. for 75 minutes in an ultracentrifuge. These tubes were carefully removed from the rotor and from titanium buckets, placed in a rack with the 36% sucrose interface visible. The membraneous material at the interface was collected with a pasteur pipet and transfered into 2 clean nalgene 40 ml centrifuge tubes. Volume was brought up to 40 mls with ice cold sucrose buffer. Tubes were balanced and centrifuged as before at 5900 RPM in J2-21 centrifuge. […]

UT-7 cells = test: UT-7 ^3H-thymidine uptake assay; assay type: cell-based, human; conditions: E. coli derived
Experimental: UT-7 cells are a human megakaryocyte, huGM-CSF responsive cell line obtained from John Adamson, New York Blood Center, New York, N.Y. UT-7 cells were cultured in Iscove's Modified Dulbecco's Medium, 10% FBS, 1× glutamine, 5 \g/ml huGM-CSF. Cells are passaged twice a week at 1×10^5 cells/ml.
Cells were washed twice in phosphate buffered saline (PBS) and resuspended in RPMI medium with 4% FBS and glutamine penicillin streptomycin (GPS) (Irvine Scientific Cat No. 9316 used at 1% volume per volume) at 4×10^4 cells/ml before use. Human SCF along with specific samples were added to 4000 cells/well in 96 well plates and were cultured for 72 hrs. 0.5 uCi/well of ^3H-Thymidine was then added to each plate, plates were harvested and counted 4 hours later.

normal baboons = test: In vivo activity in normal primates
HIV = conditions: other studies; cited from earlier work
KG-1 = KG-1 soft agar cloning assay; assay type: cell-based, human; conditions: 50 μl assayed (5 ng/ml)
Experimental: Another activity of recombinant human SCF is the ability to cause proliferation in soft agar of the human acute myelogenous leukemia (AML) cell line, KG-1 (ATCC CCL 246). COS-1 supernatants from transfected cells were tested in a KG-1 agar cloning assay [Koeffler et al., Science, 200, 1153–1154 (1978)] essentially as described except cells were plated at 3000/ml.

human bone marrow = test: Human bone marrow colony assay; assay type: cell-based; conditions: agar colony assay, factors alone or combined
Experimental: The cDNA of human SCF corresponding to amino acids 1–162 obtained by PCR reactions outlined in Example 3D, was expressed in COS-1 cells as described for the rat SCF in Example 4. COS-1 supernatants were assayed on human bone marrow as well as in the murine HPP-CFC and MC/9 assays. […] The culture conditions of the assay were as follows: human bone marrow from healthy volunteers was centrifuged over Ficoll-Hypaque gradients (Pharmacia) and cultured in 2.1% methyl cellulose, 30% fetal calf serum, 6×10^−5 M 2-mercaptoethanol, 2 mM glutamine, ISCOVE'S medium (GIBCO), 20 U/ml EPO, and 1×10^5 cells/ml for 14 days in a humidified atmosphere containing 7% O2, 10% CO2, and 83% N2. Only those colonies of 0.2 mm in size or larger are indicated.
Recombinant human SCF was tested in agar colony assays on human bone marrow in combination with other growth factors as described above.

normal human bone marrow = test: Human CFU-GM assay; assay type: cell-based; conditions: average of triplicate cultures; SCF = COS-1 supernatant 4 days after transfection
control marrow = test: BFU-E culture of control marrow; assay type: cell-based, human; conditions: with EPO
Excerpt: (§1) Another bone marrow failure disorder which is responsive to SCF is Diamond-Blackfan anemia (DBA) or congenital pure red cell aplasia. This congenital abnormality results in a selective defect in the production of red blood cells and often results in chronic transfusion dependency. […] This pattern of response reflects an intrinsic defect in the receptor for SCF (c-kit) on the progenitor cell. In either case (abnormal production of SCF by the microenvironment or decreased stimulation of the hematopoietic progenitor by SCF) SCF overcomes the block to hematopoiesis which characterizes bone marrow failure syndromes such as DBA.

[3] = tested on: bone marrow from patients with DBA; test: BFU-E culture of Diamond-Blackfan anemia marrow; assay type: cell-based, human
Excerpt: as §1

Lewis rats = test: SCF and G-CSF in Lewis rats; assay type: in vivo, rat
Experimental: Quantitative peripheral blood and bone marrow differentials were performed at various timepoints as previously described [Hulse, Acta Haematol. […] J. Physiol. […] Histologic examination of the spleen was performed with Bouin's-fixed paraffin-embedded sections stained with hematoxylin-and-eosin as well as by the Giemsa method. The numbers of normoblasts, megakaryocytes, and mast cells per 400× or 1000× high power field (HPF) in the spleen was quantitated by counting the number of each cell type in randomly selected fields of the red pulp. Increases in circulating numbers of neutrophils over extended time periods were when so stated calculated by planimetry as previously described. […] Data is expressed as the mean plus-or-minus one standard deviation and statistical analysis is by the unpaired t-test.

[4] = tested on: dog with cyclic neutropenia; test: Canine cyclic neutropenia; assay type: in vivo; conditions: rcanineSCF 100 mg/kg/day s.c. over several weeks
Experimental: Cyclic neutropenia, in particular, is a defect in the regulation of stem cell division since other lineages (e.g., platelet, erythrocyte and monocyte) are also effected. […] A typical dog with cyclic neutropenia was treated with rcanineSCF (recombinant canine SCF) at […] subcutaneously over several weeks. […] Thus, SCF is useful in treating a variety of bone marrow failure syndromes, either alone or in combination with other hematopoietic growth factors.

[5] = 6 hours after a single injection

Molecule: Cc1cn([C@H]2C[C@H](N=[N+]=[N-])[C@@H](CO)O2)c(=O)[nH]c1=O [zidovudine]
- IC50 [1]: 2.65 to 1380 µM

Molecule: Human SCF^1-165: recombinant human [Met^−1]SCF^1-165 expressed in E. coli
- competition with binding of human [^125I][Met^−1]SCF^1-164 [2]: compete equally well
- stimulation of UT-7 proliferation, comparison (UT-7 cells): equally active
- in vivo biological activity in primates compared with human SCF^1-164 (normal baboons): same in vivo biological activity

Molecule: GM-CSF: human granulocyte-macrophage colony stimulating factor
- replication of HIV in partially purified primary peripheral blood monocytes (HIV): significantly increase replication of HIV
- Colony #/3000 Cells ± SD (KG-1): 14 ± 5
- Colony #/10^5 cells (14 Days) (human bone marrow): 14 ± 2
- Colony #/100,000 cells (±SEM) (normal human bone marrow): 7 ± 1

Molecule: SCF: stem cell factor added to DBA and control marrow cultures; form not specified
- increase in frequency of BFU-E (control marrow): 1.5 fold
- increase in the frequency of BFU-E ([3]; majority of patients, ≤10 ng/ml SCF, with EPO): approximately 3 fold
- SCF concentration giving an increase in the frequency of BFU-E ([3]; other group of patients with DBA): greater than or equal to 50 ng/ml

B1: G-CSF: human granulocyte colony-stimulating factor (protein, UniProt P09919 31-207, looked up)
Granulocyte …: TPLGPASSLPQSFLLKCLEQVRKIQGDGAALQEKLVSECATYKLCHPEELVLLGHSLGIPWAPLSSCPSQALQLAGCLSQLHSGLFLYQGLLQALEGISPELGPTLDTLQLDVADFATTIWQQMEELGMAPALQPTQGAMPAFASAFQRRAGGVLVASHLQSFLEVSYRVLRHLAQP
- time of peak neutrophilia after a single injection (Lewis rats; 25 ug/rat i.v.): 12 h
- decrease in mature marrow neutrophils vs carrier control (Lewis rats; [5]): 44%
- mature marrow neutrophils (Lewis rats; [5]): 5.55±0.5 ×10^6 PMN/humerus
- myeloblasts and promyelocytes in marrow vs carrier controls (Lewis rats; 6 hours after single injection): significant increase in myeloblasts and promyelocytes
- mature neutrophils in bone marrow (Lewis rats; 24 hours after daily injection for one week): 28.5±2.1 ×10^6 PMN/humerus
- circulating neutrophils (Lewis rats; daily 25 ug/rat for one week, 24 hours after the last injection): 10.6±3.6 ×10^3 PMN/mm^3
- morbidity and thrombocytopenia (Lewis rats; daily for one week): None of the rats
- circulating neutrophils (Lewis rats; daily for one week, 12 hours after the last (seventh) injection): 25.3±0.3 ×10^3 PMN/mm^3
- number of megakaryocytes in the spleen (Lewis rats; per 400× HPF, daily for one week): 2.0±1.1
- number of normoblasts in the spleen (Lewis rats; per 1,000× HPF, daily for one week): 0±0
- Colony #/10^5 cells (14 Days) (human bone marrow): 32 ± 3
- neutrophil cycling [4]: increases the frequency and amplitude of neutrophil cycling, but does not eliminate it
- Colony #/100,000 cells (±SEM) (normal human bone marrow): 24 ± 1
